Assay results published in patent US20060063701A1 (INSTITUTE FOR PROTEIN SCIENCE, published 2006).
Ends that are not written are not given here.

Assays:
[1] = molecular target: T1, PL37 in multiple antigenic peptide form (human, also: multiple antigenic peptide form, core and copy number not given here, abstract and print the sequence differently); test: SPR (Biacore), PL37-MAP amine-coupled to CM5 chip, peptide as analyte
T1 construct: PL37 is the fragment aa 37-53 of C5a anaphylatoxin; The assays used the MAP form; its core and valency are not described; also called PL37-MAP
T1 peptide: RAARISLGPRCIKAFTE
Protocol: (§1) FIG. 1. Binding of C-peptides to immobilized PL37-MAP and C5a using Biacore equipment. An overlay plot of response curves obtained from the Biacore instrument when various concentrations of Pep-A and Pep-B were injected. All samples were injected at time 0, and the association was monitored as an increase in RU. a, Various concentrations of Pep-A were injected over the PL37-MAP-coupled flow cell. b, The same concentrations of Pep-B were also injected over the PL37-MAP-coupled flow cell. c, Pep-A was injected over the C5a-coupled flow cell at the same concentrations of Pep-A as in FIG. 1a. d, The same concentrations of Pep-B were also injected over the C5a-coupled flow cell.
Binding interactions between PL37 or C5a with C-peptides were evaluated using surface plasmon resonance (SPR) technology with the Biacore system. PL37 and C5a were covalently immobilized on the CM5 sensor chip by amine coupling methods using N-ethyl-N-(dimethylaminopropyl)carbodiimide/N-hydroxysuccinimide (EDC/NHS) according to the manufacturer's instructions. […] Binding interactions were determined by passing samples simultaneously over both the EA-blocked cell and the flow cell with immobilized PL37 or C5a so as to obtain units of resonance response (RU) by subtraction of the background using Biacore software (BIA evaluation). […]

[2] = molecular target: T2, recombinant human C5a (human, UniProt P01031 678-751); test: SPR (Biacore), C5a amine-coupled to CM5 chip, peptide as analyte
T2 construct: domain: C5a anaphylatoxin (74-amino acid peptide); The calcium assay names recombinant human C5a; The SPR section says only 'C5a'; C5a is a 74-residue fragment of it; also called RhC5a; C5a anaphylatoxin
T2 sequence (looked up): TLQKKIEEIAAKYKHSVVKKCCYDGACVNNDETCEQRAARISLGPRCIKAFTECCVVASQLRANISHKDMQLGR
Protocol: as §1
Binding interactions between PL37 or C5a with C-peptides were evaluated using surface plasmon resonance (SPR) technology with the Biacore system. PL37 and C5a were covalently immobilized on the CM5 sensor chip by amine coupling methods using N-ethyl-N-(dimethylaminopropyl)carbodiimide/N-hydroxysuccinimide (EDC/NHS) according to the manufacturer's instructions. […] Binding interactions were determined by passing samples simultaneously over both the EA-blocked cell and the flow cell with immobilized PL37 or C5a so as to obtain units of resonance response (RU) by subtraction of the background using Biacore software (BIA evaluation).

B1: Peptide-B (peptide)
peptide: ASTAPARAGLPRLPKFF
notes: Synthetic 17-residue complementary peptide designed with MIMETIC against PL37; also called Pep-B; C-peptide B
binding result [1]: no binding | binding result [2]: no binding
